Assay results from PMC3131183.

Legend:
Test in all cases: FRET or BRET
[1] = target: Gγ subunit (human (endogenous in PMNs)) (UniProt P59768)
[2] = target: Hck (haemopoietic cell kinase) (human (endogenous in PMNs)) (UniProt P08631)
[3] = target: β-arrestin-1 (human (endogenous in PMNs)) (UniProt P49407)
Chain of UniProt P49407 (P49407 whole entry): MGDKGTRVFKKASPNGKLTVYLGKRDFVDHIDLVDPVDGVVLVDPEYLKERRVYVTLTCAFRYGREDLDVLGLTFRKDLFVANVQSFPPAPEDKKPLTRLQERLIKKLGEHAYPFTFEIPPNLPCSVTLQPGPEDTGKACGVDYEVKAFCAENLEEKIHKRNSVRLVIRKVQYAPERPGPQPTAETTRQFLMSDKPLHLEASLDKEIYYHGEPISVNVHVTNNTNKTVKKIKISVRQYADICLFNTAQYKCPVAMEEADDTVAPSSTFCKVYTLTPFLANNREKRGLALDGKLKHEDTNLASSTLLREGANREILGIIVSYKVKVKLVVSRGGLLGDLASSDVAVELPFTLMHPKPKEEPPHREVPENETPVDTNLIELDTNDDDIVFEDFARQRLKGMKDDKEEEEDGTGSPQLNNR

Chain of UniProt P08631 (P08631 whole entry): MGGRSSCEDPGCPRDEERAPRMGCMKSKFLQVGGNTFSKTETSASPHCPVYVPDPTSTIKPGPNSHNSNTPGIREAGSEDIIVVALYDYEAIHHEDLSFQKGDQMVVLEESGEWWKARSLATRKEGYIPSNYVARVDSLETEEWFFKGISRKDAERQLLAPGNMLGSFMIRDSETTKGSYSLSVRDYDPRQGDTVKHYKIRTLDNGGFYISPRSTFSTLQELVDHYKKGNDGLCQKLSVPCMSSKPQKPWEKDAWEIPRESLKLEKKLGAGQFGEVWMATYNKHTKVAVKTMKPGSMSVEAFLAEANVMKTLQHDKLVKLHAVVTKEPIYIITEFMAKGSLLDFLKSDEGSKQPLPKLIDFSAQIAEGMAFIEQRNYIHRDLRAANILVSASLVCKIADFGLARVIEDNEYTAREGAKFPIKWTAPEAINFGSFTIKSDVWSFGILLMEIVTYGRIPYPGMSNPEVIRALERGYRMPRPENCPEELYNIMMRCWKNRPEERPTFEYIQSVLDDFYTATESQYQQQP

Substance | FRET efficiency [1] [%] | FRET efficiency [2] [%] | FRET efficiency [3] [%]
Gβ subunit (from UniProt P62873 1-340) (natural protein) | 58 | 54 | –
clathrin heavy chain (from UniProt Q00610 1-1675) (natural protein) | – | – | 38
